# Laboratory results reported in IntAct's records for PubMed 24115911.
# B1: Urease accessory protein UreF (Helicobacter pylori), Q09065 (parent)
# chain: MDKGKSVKSTEKSVGMPPKTPKTDNNAHVDNEFLILQVNDAVFPIGSYTHSFGLETYIQQKKVTNKESALEYLKANLSSQFLYTEMLSLKLTYESALQQDLKKILGVEEVIMLSTSPMELRLANQKLGNRFIKTLQAMNELDMGEFFNAYAQKTKDPTHATSYGVFAASLGIELKKALRHYLYAQTSNMVINCVKSVPLSQNDGQKILLSLQSPFNQLIEKTLELDESHLCTASVQNDIKAMQHESLYSRLYMS
# Variants of: B1
# Conditions: with ureg_helpy ureG
row,Variant,effect of a mutation on the interaction
1,MDKGKSVKSTEKSVGMPPKTPKTDNNAHVDNEFLILQVNDAVFPIGSYTHSFGLETYIQQKKVTNKESALEYLKANLSSQFLYTEMLSLKLTYESALQQDLKKILGVEEVIMLSTSPMELRLANQKLGNRFIKTLQAMNELDMGEFFNAYAQKTKDPTHATSYGVFAASLGIELKKALAHYLDAQTSNMVINCVKSVPLSQNDGQKILLSLQSPFNQLIEKTLELDESHLCTASVQNDIKAMQHESLYSRLYMS [R179A;Y183D],disrupting interaction strength
